Publication PMC6910828, “Extraction of active RhoGTPases by RhoGDI regulates spatiotemporal patterning of RhoGTPases” (eLife, 2019)

What was measured:
Settings in all cases: both partners purified
[1] = molecular target: Cy3-labelled, prenylated Cdc42 G12V, GTPγS-bound (Cy3 at the N-terminus (Cy3 N-t labeled LPETGG peptide joined by sortase); geranylgeranyl by in vitro prenylation (C-terminal prenyl moiety); GTPγS-bound); assay: membrane extraction (wash-off) assay on supported lipid bilayers, TIRF; as above, GDI titrated between 0 and 20 µM; Koff of the GTPase from the membrane plotted against GDI concentration and fitted with a hyperbolic function (Kd, Vmax); apparent affinities
[2] = molecular target: Cy3-labelled, prenylated Rho G14V, GTPγS-bound (Cy3 at the N-terminus (Cy3 N-t labeled LPETGG peptide joined by sortase); geranylgeranyl by in vitro prenylation (C-terminal prenyl moiety); GTPγS-bound); assay: as above
[3] = molecular target: Cy3-labelled, prenylated Cdc42, wild type, GDP-bound (Cy3 at the N-terminus (Cy3 N-t labeled LPETGG peptide joined by sortase); geranylgeranyl by in vitro prenylation (C-terminal prenyl moiety); GDP-bound); assay: membrane extraction (wash-off) assay on supported lipid bilayers, TIRF; Cy3-labelled prenylated GTPase (200 nM) equilibrated on 100% DOPC supported lipid bilayers, flushed at 10 µL/sec with imaging buffer (20 mM HEPES pH 7.0, 150 mM KCl, 1.5 mM MgCl2, 0.5 mM EGTA, 100 µM GDP/GTP) alone or with 5 µM RhoGDI; decay fitted with a monoexponential function
Cy3-labelled, prenylated Cdc42, wild type, GDP-bound (Cy3 at the N-terminus (Cy3 N-t labeled LPETGG peptide joined by sortase); geranylgeranyl by in vitro prenylation (C-terminal prenyl moiety); GDP-bound), sequence (P60953 whole entry): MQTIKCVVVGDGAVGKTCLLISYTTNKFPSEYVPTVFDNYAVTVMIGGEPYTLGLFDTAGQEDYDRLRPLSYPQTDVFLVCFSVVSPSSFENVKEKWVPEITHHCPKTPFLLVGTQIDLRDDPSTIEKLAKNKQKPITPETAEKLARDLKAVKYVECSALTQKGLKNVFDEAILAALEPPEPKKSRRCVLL

Cy3-labelled, prenylated Rho G14V, GTPγS-bound (Cy3 at the N-terminus (Cy3 N-t labeled LPETGG peptide joined by sortase); geranylgeranyl by in vitro prenylation (C-terminal prenyl moiety); GTPγS-bound), sequence (chain, as listed by the source G14V): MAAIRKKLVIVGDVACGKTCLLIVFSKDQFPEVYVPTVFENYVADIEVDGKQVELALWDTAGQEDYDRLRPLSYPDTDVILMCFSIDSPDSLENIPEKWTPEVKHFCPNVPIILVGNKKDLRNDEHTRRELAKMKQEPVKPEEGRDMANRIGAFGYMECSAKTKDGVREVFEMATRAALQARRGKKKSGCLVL
Cy3-labelled, prenylated Cdc42 G12V, GTPγS-bound (Cy3 at the N-terminus (Cy3 N-t labeled LPETGG peptide joined by sortase); geranylgeranyl by in vitro prenylation (C-terminal prenyl moiety); GTPγS-bound), sequence (chain, as listed by the source G12V): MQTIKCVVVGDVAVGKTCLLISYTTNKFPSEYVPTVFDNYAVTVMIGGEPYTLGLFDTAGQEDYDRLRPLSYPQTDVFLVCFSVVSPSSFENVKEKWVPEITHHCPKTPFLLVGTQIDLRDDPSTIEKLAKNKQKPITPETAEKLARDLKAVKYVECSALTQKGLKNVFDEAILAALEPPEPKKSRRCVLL

B1: Xenopus laevis RhoGDI, wild type (natural protein)
chain: MAEHEPTPEQLHQIAAENQDEEHSVDYKPPAQKSIKEIQELDQDDESLRKYKEALLGSLPSSADPEASNVVVTKLTLLCDCAPGPLELDLTGDLEKFKKQSFTLKEGVEYRIKISFKVNKEIVSGLRYQQQTYRKGVRLDRTRYMVGSYGPRVDEYEFLTPIEEAPNGMLARGCYNIKSLFTDDDKSNHLSWEWNLHIKNDWKS
B1 was tested, and the “fold difference in extraction, GDP-bound GTPase over GTPγS-bound G12V” value [1] was 1.5 fold, the “fold difference in extraction, GDP-bound GTPase over GTPγS-bound G14V” value [2] was 1.5 fold and the “fold acceleration of the dissociation of Cdc42:GDP from the membrane by excess GDI” value [3] was about 20 fold.
